Measurements: patent publication US20170320921A1 (Scripps Research, published 2017)

B1: recombinant Protein M TD (His-tagged MG281 residues 74 to 468) (other)
chain: HHHHHHSSGLVPRGSHMSLSLNDGSYQSEIDLSGGANFREKFRNFANELSEAITNSPKGLDRPVPKTEISGLIKTGDNFITPSFKAGYYDHVASDGSLLSYYQSTEYFNNRVLMPILQTTNGTLMANNRGYDDVFRQVPSFSGWSNTKATTVSTSNNLTYDKWTYFAAKGSPLYDSYPNHFFEDVKTLAIDAKDISALKTTIDSEKPTYLIIRGLSGNGSQLNELQLPESVKKVSLYGDYTGVNVAKQIFANVVELEFYSTSKANSFGFNPLVLGSKTNVIYDLFASKPFTHIDLTQVTLQNSDNSAIDANKLKQAVGDIYNYRRFERQFQGYFAGGYIDKYLVKNVNTNKDSDDDLVYRSLKELNLHLEEAYREGDNTYYRVNENYYPGASIYENERASRDSEFQNEILKR
B2: PM2 (Protein M TD residues 74 to 482, Tyr158 to phenylalanine) (other)
chain: HHHHHHSSGLVPRGSHMSLSLNDGSYQSEIDLSGGANFREKFRNFANELSEAITNSPKGLDRPVPKTEISGLIKTGDNFITPSFKAGYYDHVASDGSLLSYFQSTEYFNNRVLMPILQTTNGTLMANNRGYDDVFRQVPSFSGWSNTKATTVSTSNNLTYDKWTYFAAKGSPLYDSYPNHFFEDVKTLAIDAKDISALKTTIDSEKPTYLIIRGLSGNGSQLNELQLPESVKKVSLYGDYTGVNVAKQIFANVVELEFYSTSKANSFGFNPLVLGSKTNVIYDLFASKPFTHIDLTQVTLQNSDNSAIDANKLKQAVGDIYNYRRFERQFQGYFAGGYIDKYLVKNVNTNKDSDDDLVYRSLKELNLHLEEAYREGDNTYYRVNENYYPGASIYENERASRDSEFQNEILKRAEQNGVTFDENIKR
B3: 13PL IgG, monoclonal immunoglobulin from multiple myeloma patient 13PL (human IgG1κ) (antibody, V domains shown)
VH: AVSLVESGGGTVEPGSTLRLSCAASGFTFGSYAFHWVRQAPGDGLEWVAFISYNGSSKYYANFVKGRFTISRDNSSNTLSLQMNSLKASDTAVYYCARAPDCAQADCHKGAFGYWGQGTLVTVSS
VL: DIEMTQSPSSLSASTGDKVTITCQASQDIAQFLDWYQQRPGDTPKLLIYDASNLAIGVPSRFTGSGSGTDFTFTISSLQPEDIAVYYCQHYDDFPISFGPGTKLETKR
notes: also called multiple myeloma antibody 13PL; Multiple Myeloma antibody (13PL)
B4: Mpn400 (residues 41 to 582), His-tagged recombinant, lacking the membrane domain (other)
chain: HHHHHHSSGLVPRGSHMNEVLRLQSGETLIASGRSGNLSFQLYSKVNQNAKSKLNSISLTDGGYRSEIDLGDGSNFREDFRNFANNLSEAITDAPKDLLRPVPKVEVSGLIKTSSTFITPNFKAGYYDQVAADGKTLKYYQSTEYFNNRVVMPILQTTNGTLTANNRAYDDIFVDQGVPKFPGWFHDVDKAYYAGSNGQSEYLFKEWNYYVANGSPLYNVYPNHHFKQIKTIAFDAPRIKQGNTDGINLNLKQRNPDYVIINGLTGDGSTLKDLELPESVKKVSIYGDYHSINVAKQIFKNVLELEFYSTNQDNNFGFNPLVLGDHTNIIYDLFASKPFNYIDLTSLELKDNQDNIDASKLKRAVSDIYIRRRFERQMQGYWAGGYIDRYLVKNTNEKNVNKDNDTVYAALKDINLHLEETYTHGGNTMYRVNENYYPGASAYEAERATRDSEFQKEIVQRAELIGVVFEYGVKNLRPGLKYTVKFESPQEQVALKSTDKFQPVIGSVTDMSKSVTDLIGVLRDNAEILNITNVSKDETVVAELKEKLDRENVFQEIRT

What was measured:
[1] = target: T1, PGT135 Fab (against HIV-1 gp120, κ light chain); experiment: Biolayer Interferometry (Octet Red)
T1 construct: also called Fab PGT135

[2] = target: T2, Fab CR9114 (against influenza hemagglutinin, λ light chain); experiment: Biolayer Interferometry (Octet Red)
T2 construct: also called CR9114 Fab

[3] = target: T3, Human IgG4κ (Sigma Aldrich catalog no. 14639), myeloma antibody; experiment: Biolayer Interferometry; antibody (printed IgG4λ) on protein G sensors, PM2 in solution
[4] = target: T4, 4PL IgG, human multiple myeloma antibody (Mayo Clinic); experiment: Biolayer Interferometry; antibody on protein G sensors, PM2 in solution
[5] = target: T5, Human IgG2κ (Sigma Aldrich catalog no. 15404), myeloma antibody; experiment: as above
T5 construct: also called IgG2k

[6] = target: T6, Human IgG2λ (Sigma Aldrich catalog no. 15279), myeloma antibody; experiment: as above
T6 construct: also called IgG21

[7] = target: T7, Human IgG3κ (Sigma Aldrich catalog no. 15654), myeloma antibody; experiment: Biolayer Interferometry; antibody (printed IgG3λ) on protein G sensors, PM2 in solution
T7 construct: also called IgG3k

[8] = target: B4; experiment: Biolayer Interferometry; antibody on protein G sensors, Mpn400 in solution
[9] = target: T7, Human IgG3κ (Sigma Aldrich catalog no. …); experiment: as above
[10] = target: T4, 4PL IgG, human multiple myeloma …; experiment: as above
[11] = target: T5, Human IgG2κ (Sigma Aldrich catalog no. …); experiment: as above
[12] = target: T8, Human IgG1κ (Sigma Aldrich catalog no. 15154), myeloma antibody; experiment: as above
T8 construct: also called IgG1k

[13] = target: T3, Human IgG4κ (Sigma Aldrich catalog no. …); experiment: as above
[14] = target: T6, Human IgG2λ (Sigma Aldrich catalog no. …); experiment: as above

## B1
[1]
  Kd: 3.7 nM
[2]
  Kd: 1.9 nM

## B2
[3]
  Kd: 1.84 nM
[4]
  Kd: 0.6 nM
[5]
  Kd: 9.56 nM
[6]
  Kd: 8.9 nM
[7]
  Kd: 6.6 nM

## B3
[8]
  Kd: 0.5 nM

## B4
[9]
  Kd: 0.93 nM
[10]
  Kd: 0.6 nM
[11]
  Kd: 6.23 nM
[12]
  Kd: 0.48 nM
[13]
  Kd: 0.43 nM
[14]
  Kd: 13 nM
